One substance from paper PMC11970506 can be followed below.

In this assay the target is POTRA1, 2 construct of BamA (E. coli). Kind of assay: SPR; Biacore T100; POTRA1, 2 immobilised by amine coupling to a CM5 chip; SurA flowed at 0 to 10 mg/ml; 25 mM MES, 150 mM NaCl, pH 6.5, 25°C.

In turn, “survival protein A (SurA), without the signal sequence (amino acids 21 to 428) (from UniProt P0ABZ6 21-428) (natural protein)” yielded a Kd of 16 µM.
